{
  "source": "paper PMC5585231",
  "about": "“Endocytic sorting motif interactions involved in Nef-mediated downmodulation of CD4 and CD3” (Nature Communications, 2017)",
  "binders": {"B1": {"name": "SIVmac239 Nef (66-235) (domain or fragment)", "chain": "MATPWRNPAEEREKLAYRKQNMDDIDEEDDDLVGVSVRPKVPLRTMSYKLAIDMSHFIKEKGGLEGIYYSARRHRILDIYLEKEEGIIPDWQDYTSGPGIRYPKTFGWLWKLVPVNVSDEAQEDEEHYLMHPAQTSQWDDPWGEVLAWKFDPTLAYTYEAYVRYPEEFGS", "notes": "pGEX-4T1 with a TEV site; also called SIV-B; SIV Nef-B; source: E. coli BL21(DE3), purified (GSH resin, size exclusion chromatography)"}},
  "target": "T1, CD3 ζ SNID2 peptide (22-mer) (human)",
  "T1 construct": "also called second ITAM motif of CD3 ζ; source: synthetic peptide (in house, Boc chemistry, RP-HPLC)",
  "T1 peptide": "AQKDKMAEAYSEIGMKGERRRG",
  "assay": "ITC; Nef (typically 200 µM) injected stepwise from the syringe into 20 µM CD3 ζ peptide in the cell; 20 mM HEPES pH 8.0, 100 mM NaCl, 25 °C; MicroCal iTC200",
  "details": "both partners purified",
  "data": [
    {"binder": "B1", "values": [
      {"measurement": "stoichiometry N", "result": 1.07}
    ]}
  ]
}
